Consider 7 substances from publication PMC4906247.

The target in assay [1] is CrAsH-tagged calmodulin, calcium-bound (Ca^2+/CrAsH-CaM) (UniProt P0DP23). The experiment in a line: fluorescence polarisation; fluorescence anisotropy, purified hDAPK2 CD + ARD variants titrated against Ca2+/CrAsH-CaM; KD estimated by non-linear regression, one-site specific binding (Prism), three experiments.
Assay [2] addresses calcium/calmodulin on Sepharose 4B (Sepharose 4B-CaM) (UniProt P0DP23). The assay can be described thus: pull-down; CaM pull-down of hDAPK2 variants from transfected HEK293T cells on Sepharose 4B-CaM, EGTA-mediated elution, western blot, three replicates.
Assay [3] addresses hDAPK2 CD + ARD W305D, BiFC construct (human). The assay can be described thus: split reporter (BiFC, NanoBiT); bimolecular fluorescence complementation in HEK293T cells, readout normalized to protein expression; endogenous Ca2+/CaM present.
Assay [4] addresses hDAPK2 CD + ARD BL mutant (Arg47, Arg50, Arg53, Arg54 to glutamate) (human). The assay can be described thus: SAXS; EMBL P12 (PETRA-III), 2.0-15.0 mg/ml, 283 K; monomer/dimer equilibrium mixture fitted (OLIGOMER).
Assay [5] addresses calcium/calmodulin on Sepharose 4B (Sepharose 4B-CaM) (UniProt P0DP23). The assay can be described thus: pull-down; CaM pull-down of purified hDAPK2 variants, SDS-PAGE with Coomassie blue staining, three repetitions.

Some results are limits rather than exact numbers.

As to “hDAPK2 CD + ARD W305D, L226R (domain or fragment)”, the Kd in assay [1] is 2.7 µM.
“hDAPK2 W305D D220K mutant expressed in HEK293T cells (CaM pull-down from lysate) (natural protein)”: the fold increase of Ca2+/CaM binding against hDAPK2 W305D in assay [2] came out at 2 fold.
Turning to “hDAPK2 CD + ARD W305D, BiFC construct (domain or fragment)”, the fold increase of the BiFC signal in assay [3] is above 5 fold.
Regarding “hDAPK2 CD + ARD S308A, D220K (domain or fragment)”, the Kd in assay [1] was below 0.0035 µM.
With “hDAPK2 CD + ARD W305D, D220K (domain or fragment)”, in assay [1], the Kd is 9.7 µM.
Consider “hDAPK2 CD + ARD BL mutant (Arg47, Arg50, Arg53, Arg54 to glutamate) (domain or fragment)”, for which the percent monomer in assay [4] came to 89%. In addition, in assay [5], the percent of the Ca2+/CaM binding of WT was 46 % of WT.
“hDAPK2 CD + ARD S308A, L226R (domain or fragment)”: the equilibrium dissociation constant (Kd) in assay [1] was below 0.0035 µM.
